Data from patent US20210277109A1 (SYSTIMMUNE, published 2021).

Tests used:
Human ROR2 [1] = biological target: T1, Human ROR2 (human, UniProt Q01974); experiment: Octet
[2] = biological target: T2, human ROR1 'Ig-Frizzled domain' (human, UniProt Q01973); experiment: Octet
T2 construct: used plain or biotinylated

[3] = biological target: T3, recombinant human ROR1 extracellular domain protein (human, UniProt Q01973 30-406); experiment: Octet, mono-valent binding to human ROR1
T3 construct: extracellular domain; Analyte in solution in the Octet assay; also called human ROR1 ECD
From the text: The heavy and light chain expression plasmids generated from each well were transiently co-transfected to produce rabbit/human chimeric antibodies. Recombinant antibody supernatants were confirmed to contain anti-ROR1 antibodies using bio-layer interferometry analysis on a ForteBio Octet Red 96 instrument. Anti-human Fc biosensors (Pall ForteBio) were used to capture antibodies in the supernatants. Association to ROR1 was observed by real-time interferometry by placing the biosensors in wells containing recombinant human ROR1 extracellular domain protein. Dissociation was measured after transfer of the biosensors into wells containing 10× kinetics buffer (Pall ForteBio). The software provided by the manufacturer was used to analyze the interferometry data.

Human ROR2 [4] = biological target: T1, Human ROR2; experiment: ELISA, direct coat; BCC supernatant
[5] = biological target: T4, human ROR1 'Kringle domain' (human, UniProt Q01973, biotinylated); experiment: ELISA, biotinylated antigen on avidin plate; BCC supernatant
T4 construct: also called biotinylated human ROR1 Kringle domain

Mouse ROR1-CHO = biological target: T5, Mouse ROR1-CHO (mouse, UniProt Q9Z139); experiment: FACS, mouse ROR1-CHO
T5 construct: expressed on the surface of CHO cells; also called mouse ROR1 on CHO cells

[6] = biological target: T3, recombinant human ROR1 extracellular …; experiment: Octet, bi-valent binding to human ROR1
[7] = biological target: T6, mouse ROR1 (serum titer ELISA antigen) (mouse, UniProt Q9Z139 30-403, limits assumed); experiment: Octet
[8] = biological target: T7, human ROR1 'Frizzled-Kringle domain' (human, UniProt Q01973); experiment: Octet
T7 construct: used plain or biotinylated

[9] = biological target: T3, recombinant human ROR1 extracellular …; experiment: ELISA, direct coat; BCC supernatant
[10] = biological target: T2, human ROR1 'Ig-Frizzled domain'; experiment: ELISA, direct coat; BCC supernatant
[11] = biological target: T6, mouse ROR1 (serum titer ELISA antigen); experiment: ELISA, direct coat; BCC supernatant
[12] = biological target: T7, human ROR1 'Frizzled-Kringle domain'; experiment: ELISA, direct coat; BCC supernatant
[13] = biological target: T2, human ROR1 'Ig-Frizzled domain'; experiment: ELISA, biotinylated antigen on avidin plate; BCC supernatant
[14] = biological target: T7, human ROR1 'Frizzled-Kringle domain'; experiment: as above
Human ROR2 (human) = Human ROR2 (human) (UniProt Q01974); experiment: ELISA, direct coat; BCC supernatant
[15] = biological target: Human ROR1-CHO cells (human) (UniProt Q01973); experiment: FACS; BCC supernatant
[16] = biological target: recombinant human ROR1 extracellular domain protein (human) (UniProt Q01973); experiment: ELISA, direct coat; BCC supernatant
Sequence of recombinant human ROR1 extracellular domain protein (human) (Q01973 30-406): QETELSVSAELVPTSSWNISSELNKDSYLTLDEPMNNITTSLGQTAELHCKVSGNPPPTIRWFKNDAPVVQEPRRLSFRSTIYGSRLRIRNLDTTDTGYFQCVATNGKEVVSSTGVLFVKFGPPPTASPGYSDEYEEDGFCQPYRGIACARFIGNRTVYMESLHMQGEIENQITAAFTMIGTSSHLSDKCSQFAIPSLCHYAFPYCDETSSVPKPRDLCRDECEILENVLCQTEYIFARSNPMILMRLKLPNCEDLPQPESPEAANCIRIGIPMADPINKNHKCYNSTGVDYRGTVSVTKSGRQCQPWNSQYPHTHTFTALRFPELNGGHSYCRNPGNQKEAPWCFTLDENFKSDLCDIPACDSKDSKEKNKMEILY

T3 sequence (Q01973 30-406): as above
T2 sequence (Q01973 30-305 limits assumed): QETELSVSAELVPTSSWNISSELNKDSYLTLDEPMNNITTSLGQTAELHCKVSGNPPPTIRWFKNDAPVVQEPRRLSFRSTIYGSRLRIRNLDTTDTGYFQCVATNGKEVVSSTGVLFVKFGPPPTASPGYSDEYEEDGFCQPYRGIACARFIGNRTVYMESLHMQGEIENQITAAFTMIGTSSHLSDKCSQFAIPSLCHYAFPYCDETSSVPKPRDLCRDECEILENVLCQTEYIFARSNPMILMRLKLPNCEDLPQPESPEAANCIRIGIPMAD
T7 sequence (Q01973 165-406 limits assumed): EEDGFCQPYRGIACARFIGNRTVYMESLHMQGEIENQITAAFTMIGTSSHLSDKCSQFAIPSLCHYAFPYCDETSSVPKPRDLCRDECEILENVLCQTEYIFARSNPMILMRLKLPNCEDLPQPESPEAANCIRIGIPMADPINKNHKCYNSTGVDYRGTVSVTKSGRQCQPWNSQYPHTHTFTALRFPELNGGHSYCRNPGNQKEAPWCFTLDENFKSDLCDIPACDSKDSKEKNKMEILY
T6 sequence (Q9Z139 30-403 limits assumed): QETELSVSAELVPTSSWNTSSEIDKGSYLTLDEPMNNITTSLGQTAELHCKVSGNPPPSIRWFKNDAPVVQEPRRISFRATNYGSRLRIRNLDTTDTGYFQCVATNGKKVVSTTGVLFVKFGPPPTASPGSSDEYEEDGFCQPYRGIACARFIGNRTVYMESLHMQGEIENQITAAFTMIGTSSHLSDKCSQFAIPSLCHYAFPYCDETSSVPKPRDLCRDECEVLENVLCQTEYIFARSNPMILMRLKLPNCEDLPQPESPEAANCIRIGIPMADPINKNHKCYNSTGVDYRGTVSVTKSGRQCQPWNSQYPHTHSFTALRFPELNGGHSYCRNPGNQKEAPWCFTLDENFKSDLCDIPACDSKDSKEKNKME
T1 sequence (Q01974 34-403 limits assumed): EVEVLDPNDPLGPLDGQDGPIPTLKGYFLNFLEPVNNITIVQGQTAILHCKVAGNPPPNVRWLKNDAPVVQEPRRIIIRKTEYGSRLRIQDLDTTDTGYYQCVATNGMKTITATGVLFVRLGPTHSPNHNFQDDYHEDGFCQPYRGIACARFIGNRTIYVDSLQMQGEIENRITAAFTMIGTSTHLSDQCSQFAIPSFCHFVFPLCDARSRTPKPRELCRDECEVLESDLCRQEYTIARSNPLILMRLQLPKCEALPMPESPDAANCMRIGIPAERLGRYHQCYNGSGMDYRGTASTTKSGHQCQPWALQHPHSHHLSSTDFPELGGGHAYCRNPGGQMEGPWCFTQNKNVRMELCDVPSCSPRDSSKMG
Sequence of Human ROR1-CHO cells (human) (Q01973 30-937 limits assumed): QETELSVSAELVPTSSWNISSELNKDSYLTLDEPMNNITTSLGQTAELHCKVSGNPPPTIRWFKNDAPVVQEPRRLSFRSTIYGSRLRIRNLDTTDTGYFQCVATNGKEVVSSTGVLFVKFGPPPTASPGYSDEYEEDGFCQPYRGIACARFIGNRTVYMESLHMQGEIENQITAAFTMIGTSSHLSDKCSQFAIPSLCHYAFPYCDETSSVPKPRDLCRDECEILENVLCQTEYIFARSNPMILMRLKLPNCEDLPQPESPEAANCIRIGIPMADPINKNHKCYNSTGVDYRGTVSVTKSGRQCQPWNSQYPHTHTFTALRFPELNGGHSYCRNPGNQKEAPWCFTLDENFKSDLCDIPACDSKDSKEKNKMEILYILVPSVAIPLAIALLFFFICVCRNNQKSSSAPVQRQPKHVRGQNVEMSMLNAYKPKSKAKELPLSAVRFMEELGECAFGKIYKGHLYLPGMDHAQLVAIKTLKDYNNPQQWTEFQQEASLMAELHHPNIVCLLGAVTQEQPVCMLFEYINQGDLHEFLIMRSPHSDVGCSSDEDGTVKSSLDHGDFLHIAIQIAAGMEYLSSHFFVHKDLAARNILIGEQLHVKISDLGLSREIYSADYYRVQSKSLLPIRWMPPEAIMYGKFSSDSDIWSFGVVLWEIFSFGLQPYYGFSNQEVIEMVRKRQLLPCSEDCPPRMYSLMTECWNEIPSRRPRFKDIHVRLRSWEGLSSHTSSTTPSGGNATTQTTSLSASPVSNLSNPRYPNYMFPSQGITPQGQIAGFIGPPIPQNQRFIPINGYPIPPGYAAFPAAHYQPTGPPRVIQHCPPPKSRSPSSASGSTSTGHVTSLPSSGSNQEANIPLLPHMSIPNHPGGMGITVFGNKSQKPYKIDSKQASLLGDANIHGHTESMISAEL
T5 sequence (Q9Z139 30-937 limits assumed): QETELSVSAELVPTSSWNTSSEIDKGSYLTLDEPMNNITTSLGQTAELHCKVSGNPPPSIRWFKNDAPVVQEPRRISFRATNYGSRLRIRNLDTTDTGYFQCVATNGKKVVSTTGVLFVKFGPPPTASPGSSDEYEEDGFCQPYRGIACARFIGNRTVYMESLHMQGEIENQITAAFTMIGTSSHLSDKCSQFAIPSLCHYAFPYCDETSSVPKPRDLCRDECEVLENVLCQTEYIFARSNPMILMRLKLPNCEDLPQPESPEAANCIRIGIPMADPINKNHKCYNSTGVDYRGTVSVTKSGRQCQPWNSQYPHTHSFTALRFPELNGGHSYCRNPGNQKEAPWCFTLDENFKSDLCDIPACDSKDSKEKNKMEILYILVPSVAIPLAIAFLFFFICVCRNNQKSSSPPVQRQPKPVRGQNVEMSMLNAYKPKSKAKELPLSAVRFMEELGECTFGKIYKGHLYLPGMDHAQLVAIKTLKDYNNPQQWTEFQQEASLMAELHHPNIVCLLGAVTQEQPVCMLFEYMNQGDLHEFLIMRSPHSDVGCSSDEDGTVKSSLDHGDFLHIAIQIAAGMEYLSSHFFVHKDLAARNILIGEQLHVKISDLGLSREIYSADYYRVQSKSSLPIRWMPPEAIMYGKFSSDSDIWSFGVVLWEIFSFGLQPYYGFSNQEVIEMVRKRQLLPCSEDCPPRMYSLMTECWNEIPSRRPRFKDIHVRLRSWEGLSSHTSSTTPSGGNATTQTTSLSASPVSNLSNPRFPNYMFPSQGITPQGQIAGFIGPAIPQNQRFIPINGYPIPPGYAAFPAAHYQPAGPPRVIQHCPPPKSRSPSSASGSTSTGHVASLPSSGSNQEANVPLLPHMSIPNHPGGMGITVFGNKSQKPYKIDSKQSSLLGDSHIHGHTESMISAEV
Sequence of Human ROR2 (human) (Q01974 34-403 limits assumed): as the sequence (Q01974 34-403 limits assumed) above
T4 sequence (Q01973 308-395 limits assumed): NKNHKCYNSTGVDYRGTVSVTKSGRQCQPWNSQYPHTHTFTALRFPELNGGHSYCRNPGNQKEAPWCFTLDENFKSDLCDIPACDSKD

| Binder | binding result (Human ROR2 [1]) | koff [3] [s⁻¹] | binding result (Mouse ROR1-CHO) | binding result [7] | binding result [8] | ELISA OD450 [10] [OD450] | ELISA OD450 [11] [OD450] | ELISA OD450 [12] [OD450] | ELISA OD450 [13] [OD450] | ELISA OD450 [14] [OD450] | ELISA OD450 (Human ROR2 (human)) [OD450] | FACS MFI [15] [MFI] | also measured |
| --- | --- | --- | --- | --- | --- | --- | --- | --- | --- | --- | --- | --- | --- |
| 330F11 chimeric rabbit/human IgG antibody (antibody, V domains shown, Rabbit variable regions on human gamma-1 and human kappa constant domains) VH: QSVEESGGRLVTPGTPLTLTCTVSGFSLNNYWMSWVRQAPGEGLEWIGTISSGAYTWFATWATGRFTISKTSTTVDLSITSPTTEDTATYFCARYSSTTDWTYFNIWGPGTLVTVSS VL: DVVMTQTPASVEAAVGGTVTIKCQASQSINNYLAWYQQKPGQPPKLLIYRASTLESGVPSRFKGSGSGTQFTLTISDLECADAATYYCQSYNGVGRTAFGGGTEVEFKR | no binding | 1.26e-08 | – | – | – | – | – | – | – | – | – | – | binding result [2]: no binding |
| 226E12 (antibody, V domains shown, chimeric counterpart m2; also called rabbit IgG of BCC well 226E12) VH: QSLEESGGRLVTPGTPLTLTCTASEFSLSNYYMSWVRQAPGEGLEWIGAINADSDNTWYPSWVKGRFTISKTSSTTVDLKITSPTIEDTATYFCARSVSNNFAEYNIWGPGTLVTVSS VL: AYDMTQTPSSVSAAVGGTVTIKCQASQRIYSYLAWYQQKPGQPPKLLIYRASTLASGVPSRFKGSGSGTEYTLTISDLECADAATYYCQQGASMVDVENMFGGGTEVVVK | – | – | – | – | – | – | – | – | – | – | – | – | ELISA OD450 (Human ROR2 [4]): 0.09 OD450; ELISA OD450 [5]: 0.41 OD450 |
| 323H7 chimeric rabbit/human IgG antibody (antibody, V domains shown, Rabbit variable regions on human gamma-1 and human kappa constant domains) VH: QEQLKESGGGLVTPGGTLTLTCTASGFTISRYHMTWVRQAPGKGLEWIGHIYVNNDDTDYASWAKGRFTISKTSTTVDLKITSPTTEDTATYFCARLDVGGGGAYIGDIWGQGTLVTVSS VL: QAVVTQTPSSVSAAVGGTVTISCQSSQSVYNNNDLAWYQQKPGQPPKLLIYYASTLASGVSSRFKGSGSGTQFTLAISDLECDDSATYYCAGGYDTDGLDTFAFGGGTEVEVKR | no binding | 2.08e-08 | no binding | no binding | no binding | – | – | – | – | – | – | – | koff [6]: 0.0062 s⁻¹ |
| 324C7 chimeric rabbit/human IgG antibody (antibody, V domains shown, Rabbit variable regions on human gamma-1 and human kappa constant domains) VH: QSVEESGGRLVTPGTPLTLTCTVSGFSLSGAGVSWVRQAPGKGLEWIGYIDSGATTYYASWAKGRFTISKASTTVDLKIASPTTEDTATYFCARGYYGMDPWGQGTLVTVSS VL: DIVMTQTPASVEVAVGGTVTIKCQASQNIGSDLAWYQQKPGQPPKLLIYTTSNLASGVPSRFKGSGSGTGFTLTISDLECADAASYCCQGGYFSGRNIYGNAFGGGTEVVVKR | no binding | 1.35e-08 | no binding | no binding | no binding | – | – | – | – | – | – | – | – |
| 323D10 (antibody, V domains shown, chimeric counterpart m5; also called rabbit IgG of BCC well 323D10) VH: QSVEESGGRLVTPGTPLTLTCTVSGFSLSRNAMNWVRQAPGKGLEYIGYISTSGTTFYANWVKGRFTISKTSTTVDLKMTSLTTEDTATYFCARDYNYAMDIWGQGTLVTVSS VL: AIDLTQTPASVEAAVGGTITINCQASESISSWLAWYQQKPGQRPKLLIYETSKLASGVPPRFSGSGSGTQFTLTISGVQCDDAATYYCQSYYRINNIGYDNAFGGGTEVEFK | – | – | – | – | – | 1.94 | 4 | 0.32 | 2.23 | 0.17 | 0.23 | 20 | ELISA OD450 [9]: 2.32 OD450 |
| 324E2 (antibody, V domains shown, chimeric counterpart m6; also called rabbit IgG of BCC well 324E2) VH: QSVEESGGRLVTPGTPLTLTCTVSGFSLSNNAITWVRQAPGKGLEYIGIISSSGTTYYASWAKGRFTISKTSSTTVDLKMTSLTTEDTATYFCAGAFSVWGPGTLVTVSS VL: AQVLTQTPSSVSAAVGGTVTINCQSSQSVNNNDLAWFQQKPGQPPKRLIYWASKLASGVPSRFKGSGSGTQFILTISDLECDDAATYYCAGGYSGNIYGFGGGTEVEVK | – | – | – | – | – | 1.29 | 2.17 | 0.18 | 0.62 | 0.1 | 0.21 | 25 | ELISA OD450 [16]: 0.48 OD450 |
